Experimental data from paper PMC7524362, “Functional analysis and cryo-electron microscopy of Campylobacter jejuni serine protease HtrA” (Gut Microbes, 2020).
Several values for one entry are separate records, joined by “and”; a condition that tells them apart may be missing. Equal entries are not always repeated.

Assays:
[1] = biological target: HtrACj S197A, expressed without the predicted signal peptide (residues 17-472), protease-inactive mu (Campylobacter jejuni (strain 81-176)); assay: cryo-EM structure
[2] = biological target: HtrACj wild type, proteolytically active (plasmid pUZCj4) (Campylobacter jejuni (strain NCTC11168)) (UniProt Q0P928); assay: SEC; Superose 12HR10/30, 50 mM Na2HPO4/NaH2PO4 pH 7.4, 300 mM NaCl, room temperature; 41 µM HtrA pre-incubated with 41 µM β-casein (molar ratio 1:1) for 10 min at 37°C
[3] = biological target: HtrACj wild type, proteolytically active (plasmid pUZCj4) (Campylobacter jejuni (strain NCTC11168)) (UniProt Q0P928); assay: casein zymography (non-reducing SDS-PAGE); 50 ng purified HtrA in Laemmli buffer on 10% SDS-PAGE gels with 0.1% casein, non-reducing, renatured in 2.5% Triton X-100, developed overnight at 37°C
[4] = biological target: HtrACj wild type, proteolytically active (plasmid pUZCj4) (Campylobacter jejuni (strain NCTC11168)) (UniProt Q0P928); assay: SEC; Superose 12HR10/30, 50 mM Na2HPO4/NaH2PO4 pH 7.4, 300 mM NaCl, room temperature, 41 µM HtrA, no substrate; proteins purified under native conditions without refolding step
[5] = biological target: HtrAHp S221A, proteolytically inactive variant of HtrA from H. pylori 26695 (plasmid pUZ3) (Helicobacter pylori (strain 26695)); assay: SEC; Superose 12HR10/30, 50 mM Na2HPO4/NaH2PO4 pH 7.4, 300 mM NaCl, room temperature, 41 µM HtrA, no substrate; S/A mutants purified in presence of urea and refolded
[6] = biological target: HtrACj S197A, proteolytically inactive variant (plasmid pUZCj5) (Campylobacter jejuni (strain NCTC11168)) (UniProt Q0P928); assay: as above
[7] = biological target: HtrACj S197A, proteolytically inactive variant (plasmid pUZCj5) (Campylobacter jejuni (strain NCTC11168)) (UniProt Q0P928); assay: SEC; Superose 12HR10/30, 50 mM Na2HPO4/NaH2PO4 pH 7.4, 300 mM NaCl, room temperature, 41 µM HtrA, no substrate; proteins purified under native conditions without refolding step
[8] = biological target: HtrACj S197A, proteolytically inactive variant (plasmid pUZCj5) (Campylobacter jejuni (strain NCTC11168)) (UniProt Q0P928); assay: SEC; Superose 12HR10/30, 50 mM Na2HPO4/NaH2PO4 pH 7.4, 300 mM NaCl, room temperature, 41 µM HtrA, no substrate; S/A mutants purified in presence of urea and refolded; remark: listed apart in the source
[9] = biological target: the molecule itself; assay: as above

“HtrACj S197A, expressed without the predicted signal peptide (residues 17-472), protease-inactive mu (enzyme)” gave a stoichiometry N [1] of 12.

“HtrACj wild type, proteolytically active (plasmid pUZCj4) (from UniProt Q0P928 1-472) (enzyme)” showed a stoichiometry N [2] of 6, a stoichiometry N [3] of 3 and a stoichiometry N [4] of 6.

With “HtrAHp S221A, proteolytically inactive variant of HtrA from H. pylori 26695 (plasmid pUZ3) (enzyme)” the stoichiometry N [5] was 3 and 6.

“HtrACj S197A, proteolytically inactive variant (plasmid pUZCj5) (from UniProt Q0P928 1-472) (enzyme)” gave a stoichiometry N [6] of 12, a stoichiometry N [7] of 12 and a stoichiometry N [8] greater than 12.

B1: HtrAEc S210A, proteolytically inactive variant of HtrA/DegP from E. coli (plasmid pJS17) (enzyme, UniProt P0C0V0 27-474, looked up)
chain: AETSSATTAQQMPSLAPMLEKVMPSVVSINVEGSTTVNTPRMPRNFQQFFGDDSPFCQEGSPFQSSPFCQGGQGGNGGGQQQKFMALGSGVIIDADKGYVVTNNHVVDNATVIKVQLSDGRKFDAKMVGKDPRSDIALIQIQNPKNLTAIKMADSDALRVGDYTVAIGNPFGLGETVTSGIVSALGRSGLNAENYENFIQTDAAINRGNAGGALVNLNGELIGINTAILAPDGGNIGIGFAIPSNMVKNLTSQMVEYGQVKRGELGIMGTELNSELAKAMKVDAQRGAFVSQVLPNSSAAKAGIKAGDVITSLNGKPISSFAALRAQVGTMPVGSKLTLGLLRDGKQVNVNLELQQSSQNQVDSSSIFNGIEGAEMSNKGKDQGVVVNNVKTGTPAAQIGLKKGDVIIGANQQAVKNIAELRKVLDSKPSVLALNIQRGDSTIYLLMQ
notes: also called S/A mutant of HtrAEc
In the case of B1, the “stoichiometry N” value [9] is reported as 6.
